Positions count from the first letter of the chain named.
B1: [Val^8 Leu^18 ]hPTH (protein, UniProt P01270 32-115, looked up, variant M8V M18L)
Parathyroid hormone: SVSEIQLVHNLGKHLNSLERVEWLRKKLQDVHNFVALGAPLAPRDAGSQRPRKKEDNVLVESHEKSLGEADKADVNVLTKAKSQ
modifications: Parathyroid hormone
B2: [Lys^8 Leu^18 ]: structurally related human PTH variant presented for comparison; Met8 replaced by Lys, Leu at 18 (protein, UniProt P01270 32-115, looked up, variant M8K M18L)
Parathyroid hormone: B1 Parathyroid hormone with V8K
modifications: Parathyroid hormone
B3: [Cys^8 Leu^18 ]hpTH (protein, UniProt P01270 32-115, looked up, variant M8C M18L)
Parathyroid hormone: B1 Parathyroid hormone with V8C
B4: [Cys^8 ]hPTH (protein, UniProt P01270 32-115, looked up, variant M8C)
Parathyroid hormone: B1 Parathyroid hormone with V8C, L18M
B5: [Ala^8 ]hPTH (protein, UniProt P01270 32-115, looked up, variant M8A)
Parathyroid hormone: B1 Parathyroid hormone with V8A, L18M
modifications: Parathyroid hormone

Test system: rat osteosarcoma cells of the UMR line (UMR-106), adenylate cyclase activity
Assay: UMR-106 based adenylate cyclase assay (cAMP formation)
Type: cell-based
Conditions: UMR-106 cells, radiometric cAMP formation; read-out: EC50 (concentration of PTH or variant effective for half-maximal stimulation of adenylate cyclase activity)
Excerpt: In the present specification, "bone stimulating activity" is defined in the context of the osetosarcoma-based adenylate cyclase assay employed conventionally in the art. Briefly, this assay provides an in vitro determination of the extent to which PTH stimulates adenylate cyclase activity in rat osteosarcoma cells of the `UMR` lineage, and thus provides an indication of PTH effects on bone tissue in vivo. Protocols for conducting the assay have been described by Rodan et al, 1983, J. Clin. Invest., 72:1511 (in which the osteosaracoma cells of the ROS lineage are employed) and by Rabbani et al, 1988, Endocrinol., 123:2709 (which employs the line UMR-106).
Thawed or fresh samples of human PTH(1-84) and of PTH variants obtained as described above were then evaluated for biological activity in a UMR-106 based adenylate cyclase assay and the protocol as described by Rabbini et al, 1988, Endocrinology, 123:2709, which is incorporated herein by reference. As noted, rat osteosarcoma cells of the UMR line are stimulated by PTH to produce adenylate cyclase, an enzyme which catalyzes intracellular conversion of ATP to its cylic monophosphate analogue, cAMP. In this assay therefore, PTH activity is determined by assaying radiometrically the formation of cAMP in PTH-stimulated UMR cells. The results of the assays, expressed in terms of EC50 (concentration of PTH or variant effective for half-maximal stimulation of adenylate cyclase activity), are presented in Table 1.

Molecule | EC50
human PTH(1-84) | 0.002 µM
B1 | 0.11 µM
B2 | > 5 µM
B3 | 0.2 µM
B4 | 0.4 µM
B5 | 1.2 µM
